Results as given in the supplement of paper PMC9233669.
Fewer inactive variants are shown than the library holds.

Legend:
[1] = tested on: biotinyl-Phe-oxazolone; experiment: self-aminoacylation, catalytic enhancement (BFO) (fold over background); higher = more active; k-Seq, kA / k0A0; sequences stand for … in GGGAAUGGAUCCACAUCUACGAAUUC…UUCACUGCAGACUUGACGAAGCUG
Method in brief: (§1)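 Working in 50 μL HEPES/NaCl/KCl/MgCl2/CaCl2 buffer with 5% acetonitrile at pH 6.9–7.0, mutagenized RNA pools (0.43 μM; 21-nt variable region) were reacted with 2–1250 μM of each biotinyl-aminoacyl-oxazolone for 90 minutes at room temperature. Streptavidin capture followed, with quantification by triplicate qPCR and Illumina sequencing. Catalytic enhancement is reported as median kA over the uncatalyzed rate, the low-activity peak of a bimodal Gaussian fit to the data.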

[2] = tested on: biotinyl-Ile-oxazolone; experiment: self-aminoacylation, catalytic enhancement (BIO) (fold over background); higher = more active; k-Seq, kA / k0A0; sequences stand for … in GGGAAUGGAUCCACAUCUACGAAUUC…UUCACUGCAGACUUGACGAAGCUG
Method in brief: as §1

[3] = tested on: biotinyl-Val-oxazolone; experiment: self-aminoacylation, catalytic enhancement (BVO) (fold over background); higher = more active; k-Seq, kA / k0A0; sequences stand for … in GGGAAUGGAUCCACAUCUACGAAUUC…UUCACUGCAGACUUGACGAAGCUG
Method in brief: as §1

[4] = tested on: biotinyl-Leu-oxazolone; experiment: self-aminoacylation, catalytic enhancement (BLO) (fold over background); higher = more active; k-Seq, kA / k0A0; sequences stand for … in GGGAAUGGAUCCACAUCUACGAAUUC…UUCACUGCAGACUUGACGAAGCUG
Method in brief: as §1

[5] = tested on: biotinyl-Trp-oxazolone; experiment: self-aminoacylation, catalytic enhancement (BWO) (fold over background); higher = more active; k-Seq, kA / k0A0; sequences stand for … in GGGAAUGGAUCCACAUCUACGAAUUC…UUCACUGCAGACUUGACGAAGCUG
Method in brief: as §1

[6] = tested on: biotinyl-Met-oxazolone; experiment: self-aminoacylation, catalytic enhancement (BMO) (fold over background); higher = more active; k-Seq, kA / k0A0; sequences stand for … in GGGAAUGGAUCCACAUCUACGAAUUC…UUCACUGCAGACUUGACGAAGCUG
Method in brief: as §1

Row | Sequence | self-aminoacylation [1] | self-aminoacylation [2] | self-aminoacylation [3] | self-aminoacylation [4] | self-aminoacylation [5] | self-aminoacylation [6]
1 | AAUUGUGCUAAUAGUCGCAAG [Fam3.1 aminoacylation ribozyme variant] | 3.05 | 1.93 | 1.75 | 2.18 | 2.44 | 2.02
2 | AAUUUUGCUAAUCGUCGCAAG [Fam3.1 aminoacylation ribozyme variant] | 2.37 | 1.91 | 1.56 | 1.37 | 1.62 | 1.53
3 | AAUUUUGCUAGUAGUCGCAAG [Fam3.1 aminoacylation ribozyme variant] | 2.34 | 2.02 | 1.36 | 1.56 | 1.71 | 1.77
4 | AAUUUUGCUAUUAGUCGCAAG [Fam3.1 aminoacylation ribozyme variant] | 2.76 | 1.98 | 1.63 | 1.89 | 1.85 | 1.71
5 | AAUUUUGCUUAUAGUCGCAAG [Fam3.1 aminoacylation ribozyme variant] | 3.02 | 2.39 | 2.14 | 2.29 | 2.28 | 2.17
6 | AAUUUUUCUAAUAGUCGCAAG [Fam3.1 aminoacylation ribozyme variant] | 3.68 | 1.88 | 1.75 | 1.75 | 1.54 | 1.7
7 | ACACACCUCAAGCAAUCGGUC [Fam1B.1 aminoacylation ribozyme variant] | 1.19 | 0.848 | 0.927 | 0.763 | 0.883 | 0.58
8 | ACACACUUCAACCAAUCGGUC [Fam1B.1 aminoacylation ribozyme variant] | 32.5 | 1.69 | 1.56 | 2.16 | 26.6 | 1.65
9 | ACACACUUCAAGCAAACGGUC [Fam1B.1 aminoacylation ribozyme variant] | 1.56 | 1.02 | 1.04 | 0.941 | 1.13 | 0.749
10 | ACACACUUCAAGCAAGCGGUC [Fam1B.1 aminoacylation ribozyme variant] | 2.18 | 1.6 | 1.73 | 1.52 | 1.74 | 1.33
11 | ACACACUUCAAGCAAUAGGUC [Fam1B.1 aminoacylation ribozyme variant] | 1.57 | 0.894 | 0.976 | 0.737 | 0.901 | 0.828
12 | ACACACUUCAAGCAAUCGGCC [Fam1B.1 aminoacylation ribozyme variant] | 4 | 2.7 | 2.57 | 2.54 | 6.35 | 2.21
13 | ACACACUUCAAGCAAUCGGUG [Fam1B.1 aminoacylation ribozyme variant] | 56.7 | 5.89 | 5.84 | 10.5 | 9.81 | 7.83
14 | ACACACUUCAAGCAAUGGGUC [Fam1B.1 aminoacylation ribozyme variant] | 1.04 | 0.996 | 0.947 | 0.794 | 1.03 | 1.03
15 | ACACACUUCAAUCAAUCGGUC [Fam1B.1 aminoacylation ribozyme variant] | 29.4 | 1.59 | 1.53 | 1.74 | 19.8 | 1.39
16 | ACAGACUUCAAGCAAUCGGUC [Fam1B.1 aminoacylation ribozyme variant] | 68.1 | 2.39 | 2.27 | 3.24 | 38.2 | 2.39
17 | ACCCACCUAGGUCAUCGGGUG [Fam2.2 aminoacylation ribozyme variant] | 54 | 5.07 | 5.64 | 5.88 | 6.03 | 5.93
18 | ACGAUUGCUAAUAGUCGCAAG [Fam3.1 aminoacylation ribozyme variant] | 1.54 | 1.35 | 1.43 | 1.57 | 0.96 | 1.23
19 | ACGGUUGCUAAUAGUCGCAAG [Fam3.1 aminoacylation ribozyme variant] | 2.51 | 1.3 | 1.32 | 1.31 | 1.38 | 1.19
20 | ACGUGUGCUAAUAGUCGCAAG [Fam3.1 aminoacylation ribozyme variant] | 4.86 | 1.6 | 1.28 | 1.68 | 1.63 | 1.62
21 | ACGUUUGCAAAUAGUCGCAAG [Fam3.1 aminoacylation ribozyme variant] | 1.27 | 1.57 | 1.2 | 1.29 | 1.2 | 1.38
22 | ACGUUUGCUAAUUGUCGCAAG [Fam3.1 aminoacylation ribozyme variant] | 1.96 | 1.6 | 1.77 | 2.06 | 2.66 | 1.81
23 | ACUACCCUAGUCAUCGAGUGA [Fam2.1 aminoacylation ribozyme variant] | 8.71 | 2.95 | 2.64 | 5.39 | 5.01 | 4.62
24 | ACUACCCUGGUCAGCGAGUGA [Fam2.1 aminoacylation ribozyme variant] | 38.3 | 4.51 | 4.6 | 6.39 | 6.58 | 6.39
25 | ACUACCCUGGUCAUCGGGUGA [Fam2.1 aminoacylation ribozyme variant] | 293 | 20.6 | 20.9 | 50.1 | 57.6 | 48
26 | ACUACCCUGUUCAUCGAGUGA [Fam2.1 aminoacylation ribozyme variant] | 6.68 | 2.28 | 2.33 | 3.27 | 5.04 | 3.17

Row | Sequence | self-aminoacylation [1] | self-aminoacylation [2] | self-aminoacylation [3] | self-aminoacylation [4] | self-aminoacylation [5] | self-aminoacylation [6]
27 | ACUACUCUGGUCAUCGAGUGA [Fam2.1 aminoacylation ribozyme variant] | 36.2 | 4.09 | 3.45 | 8.12 | 7.79 | 5.17
28 | ACUCACCCAGGUCAUCGGGUG [Fam2.2 aminoacylation ribozyme variant] | 26.2 | 4 | 4.51 | 5.25 | 4.81 | 4.37
29 | ACUCACCUAGGUCAUCCGGUG [Fam2.2 aminoacylation ribozyme variant] | 39.5 | 4.6 | 5.7 | 7.63 | 7.81 | 6.22
30 | ACUCACCUAGGUCAUCGAGUG [Fam2.2 aminoacylation ribozyme variant] | 7.77 | 2.85 | 2.86 | 4.67 | 2.72 | 3.27
31 | ACUCACCUAGGUCAUCGGGUA [Fam2.2 aminoacylation ribozyme variant] | 157 | 11.4 | 10.1 | 27 | 14.9 | 19.9
32 | ACUCACCUAGGUCCUCGGGUG [Fam2.2 aminoacylation ribozyme variant] | 37.1 | 5.2 | 4.46 | 5.78 | 8.03 | 5.36
33 | ACUCACCUAGGUCGUCGGGUG [Fam2.2 aminoacylation ribozyme variant] | 6.16 | 2.58 | 2.4 | 2.25 | 3.42 | 2.56
34 | ACUCACCUAGGUGAUCGGGUG [Fam2.2 aminoacylation ribozyme variant] | 39.2 | 5.05 | 4.87 | 6.01 | 8.44 | 5.21
35 | ACUCACCUAUGUCAUCGGGUG [Fam2.2 aminoacylation ribozyme variant] | 33.4 | 4.11 | 4.18 | 6.52 | 6.08 | 5.4
36 | ACUCACCUUGGUCAUCGGGUG [Fam2.2 aminoacylation ribozyme variant] | 37.8 | 4.9 | 5.78 | 7.85 | 9.04 | 6.92
37 | ACUCCCCUAGGUCAUCGGGUG [Fam2.2 aminoacylation ribozyme variant] | 101 | 8.61 | 10.3 | 18.6 | 13.8 | 13.7
38 | ACUCUCCUAGGUCAUCGGGUG [Fam2.2 aminoacylation ribozyme variant] | 49.4 | 5.49 | 5.61 | 10.2 | 8.31 | 8.52
39 | ACUGACCUAGGUCAUCGGGUG [Fam2.2 aminoacylation ribozyme variant] | 32.9 | 4.97 | 5 | 7.25 | 7.32 | 6.84
40 | ACUUACCUAGGUCAUCGGGUG [Fam2.2 aminoacylation ribozyme variant] | 48.7 | 7.28 | 5.61 | 10.8 | 10.1 | 10.6
41 | AGCACCCUGGUCAUCGAGUGA [Fam2.1 aminoacylation ribozyme variant] | 6.9 | 4.58 | 3.89 | 6.84 | 9.35 | 8.03
42 | AGGACCCUGGUCAUCGAGUGA [Fam2.1 aminoacylation ribozyme variant] | 36.7 | 4.59 | 5.05 | 10.9 | 10.7 | 10.5
43 | AGGAUUGCUAAUAGUCGCAAG [Fam3.1 aminoacylation ribozyme variant] | 2.92 | 1.62 | 1.88 | 1.66 | 2.52 | 1.52
44 | AGGUUCGCUAAUAGUCGCAAG [Fam3.1 aminoacylation ribozyme variant] | 12.3 | 2.82 | 2.34 | 3.26 | 4.12 | 2.81
45 | AGGUUUGCUAAUAGCCGCAAG [Fam3.1 aminoacylation ribozyme variant] | 4.78 | 1.2 | 0.935 | 1.11 | 2.25 | 1.15
46 | AGGUUUGCUAAUAGUAGCAAG [Fam3.1 aminoacylation ribozyme variant] | 1.05 | 1.49 | 1.22 | 1.43 | 2.18 | 1.41
47 | AGGUUUGCUAAUAGUCCCAAG [Fam3.1 aminoacylation ribozyme variant] | 4.38 | 0.901 | 0.872 | 0.779 | 1.97 | 0.915
48 | AGGUUUGCUAAUAGUCGCAAG [Fam3.1 aminoacylation ribozyme variant] | 22 | 1.56 | 1.38 | 1.41 | 6.61 | 1.75
49 | AGGUUUGCUAAUAGUCGCAGG [Fam3.1 aminoacylation ribozyme variant] | 4.15 | 1.97 | 1.52 | 1.7 | 1.99 | 2.21
50 | AGGUUUGCUAAUAGUCGCCAG [Fam3.1 aminoacylation ribozyme variant] | 1.14 | 1.39 | 1.35 | 1.52 | 2.22 | 1.51
51 | AGGUUUGCUAAUAGUCGCGAG [Fam3.1 aminoacylation ribozyme variant] | 2.48 | 1.56 | 1.78 | 1.61 | 2.59 | 1.65
